T1: purified DJ-1 WT (N-terminal 6×His-tagged) (human), Q99497
T1 chain: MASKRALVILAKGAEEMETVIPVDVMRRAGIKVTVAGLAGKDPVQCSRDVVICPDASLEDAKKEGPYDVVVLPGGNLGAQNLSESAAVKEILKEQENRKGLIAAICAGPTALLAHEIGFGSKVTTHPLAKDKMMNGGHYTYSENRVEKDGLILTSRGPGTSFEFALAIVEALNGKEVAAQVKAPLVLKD


What was measured:
[1] = target: purified DJ-1 V51C (N-terminal 6×His-tagged) (human) (UniProt Q99497); test: SEC
[2] = target: T1, purified DJ-1 WT (N-terminal …); test: SEC; details: remark: other sources report otherwise

| Molecule | percent of protein that is dimer [1] [%] | percent of protein that is dimer [2] [%] | stoichiometry N [2] |
| --- | --- | --- | --- |
| purified DJ-1 V51C (N-terminal 6×His-tagged) (from UniProt Q99497 1-189) (natural protein) | 15 |  |  |
| purified DJ-1 WT (N-terminal 6×His-tagged), Q99497 1-189 (natural protein) MASKRALVILAKGAEEMETVIPVDVMRRAGIKVTVAGLAGKDPVQCSRDVVICPDASLEDAKKEGPYDVVVLPGGNLGAQNLSESAAVKEILKEQENRKGLIAAICAGPTALLAHEIGFGSKVTTHPLAKDKMMNGGHYTYSENRVEKDGLILTSRGPGTSFEFALAIVEALNGKEVAAQVKAPLVLKD |  | 33 | 2 |

— paper doi:10.1101/2020.03.26.992446
